Results from patent publication US20180016348A1.

Assays:
Assay in all cases: cell-based or functional assay
[1] = target: neuraminidase (NA) of H1N1 A/Brisbane/59/2007 (influenza A virus H1N1 A/Brisbane/59/2007)
[2] = target: neuraminidase (NA) of H5N1 A/Vietnam/1194/2004 (NIBRG-14) (influenza A virus H5N1 A/Vietnam/1194/2004 (NIBRG-14))
[3] = target: neuraminidase (NA) of H1N1 A/California/07/2009 (influenza A virus H1N1 A/California/07/2009)
[4] = target: neuraminidase (NA) of H3N2 A/Perth/16/2009 (influenza A virus H3N2 A/Perth/16/2009)

B1: CR12042 (antibody, V domains shown)
VH: EVQLVESGAEVRKPGSSVKVSCTASGDTFSSYTITWVRQAPGQGLEWMGEIIPIFGTANYAQKFQGRVTLTADESTTTAYMDLSSLRSEDTAVYYCARGPDNHSDRYFYYGMDVWGQGTTVTVSS
VL: EIVLTQSPLSLPVTPGEPASISCRSSQSLLHSTGNNYLDWYLQKPGQSPQLLIYLGSNRASGVPDRFSGSGSGTDFTLKISRVEAEDVGVYYCMQALQTPRTFGQGTKVDIK
- EC50 of neuraminidase inhibition (NA-XTD assay, whole virus) [1]: 0.11 µg/mL
- IC50 of virus neutralization (VNA on MDCK cells) [2]: 5.45 µg/mL
- IC50 of virus neutralization (VNA on MDCK cells) [3]: 0.26 µg/mL
- EC50 of neuraminidase inhibition (NA-XTD assay, whole virus) [4]: 5.01 µg/mL
- IC50 of virus neutralization (VNA on MDCK cells; one experiment) [4]: > 100 µg/mL
